The text below walks through data of a protein production outcome set (Wang et al. 2014).

This series is described as follows: label from the status in PepcDB records.
Take “MRNGILYAILLYVFMFVLWFCFAYFIDTSTTIFNIPLWFFLSGILFPSIIFFWFVFLF”: the protein production result is listed as “failed”. The result for “MRKIMREIAVYGKGGIGKSTLSANLSAALALAGRKVLQIGCDPKHDSTRLLTHGREMPTVLDYMRVTNPLDYRLEEVLAHGFSGVGCVEAGGPNPGVGCAGRGIISTFEFLDRFRLKERYDTVVYDVLGDVVCGGFAVPIRKEYADTIFIVTSGEFMALYAANNILRGVRNYDNEEKRIAGILYNRRNIEGEDDRVARFAGAVGLSVCAVIPRSDSFTRAERGKMTVMEQGSDKAIMSIFSGLAQALISGCALHEAKPLTDNELEAIVLGSISSTGGPLSGPDSLPASVTEEPSAAGPPPEIGLTDPNRYLSKNILRSEPLHGCAFNGAMSVGAQISDAVILAHSPKSCTHIMYQTISSAGRRTLFERGALLPVSLAPNLESTDMGEAEMIFGGMEKLEEKILELKARQPRAIVVVSACPAGIIGDDIGRTRRFSEPGLPVVTLKTDGNLAGDYLQGMLMAYTSLARQVIRKDVPTLPDTVNIVFEKFIVTNTNDNFQTIGSLLSRLGVRVNCRFLCETTFDSLETFCTAQLNLLAYKDYTGKLLEDFFTREYGSVFLDRAFPVGFAETEDWLRDVAAFFGRPAAAEGIIEEHKELYAREVEALKADLAGKRLMIITYNHELDWILKTALDVGIDIVKIGVFNFSQDEGFRTRLDAAFNVVENYDRGERDQDIAAYKPDILLTNYASSLADEPFVADTIPMCPDVGFHSGLVLARRWARLLKLNLKGEWRQDELLFRQYYAG” reads “failed”; that for “MAFSVAYDLIPNKLIKDIDEMNQWLHDKINRAVYLVGFATQQSDYEYKLYELFKALDELEERLKKQLFLFGNQLTESDLYLLATLERFDNIYFCLFKCSLKRIADYPALFRYHNQLRGMESLASTYQPVLTKEHYFMSTMHVLGLEHHHHHH”, “failed”. In the case of “MNVVRSSAYTGVATLAKLLAALVVVKLVAVYAGPQGVGRLGQFLNLMSVLAVLAGGGISAGIVKYVAQYRDDAPALARLLSAALWYAFCAACAMALLAMAFSGAIAERLLGDASYRPLMCVLAIAQLGIALLNYMLAVINGFMDVRRLAFVQVSGAVLSVALVAWLSGRAQLHGALLALVLSQVLWLLAAVPALRRSSYFQPAMWRMRFDAEMTRQLAAFSVMTLTSTLVPQLVAILVRDHLALQFGWEQVGYWQAVSRVSDAYLLFFTTAINVYYLPKLASLRGAVALGQELRGAYRYVMPAVIVMALGVYVCRDWVTLLLFDAQFAAAAPLYGPQLLGDVVKIAAFVLSYVMLAKAMTRLLVISECIFAASYLALVYLFTAQFGLIGAMYAFAANYVLYLLFNIVVVRRYLRRTA”, the protein production entry is recorded as “failed”. Turning to “MLTVHRDARDYQIIFLCSFLSLGILARDWSLSPLVIAVVLATALTVQSLFTINQQGNFSRWFSLDTWQSLWRHQGWKSALITGLGLCLLLRANHLSTLILAASLAIASKFLLQAWGKHWFNPANFGIIAALTLTGDAWVSPGQWGTTLWLGAVFLAAGGLVLGKVGRWDTSIMFLAVYAGLDLARNAWLGWPPEVSFHHLENGSLLVFALFMLTDPRSIPNARSSRLIWATAIAIFSLILQYHFYLPTALFWALFCLSPLTVLLDRQFPAPRFQWWQKKNPVPSN”, the protein production entry is on record as “failed”. Turning to “MNEIFGIDLGTTYSCISYVDEYGRPVVVPNAENERITPSVVFFDGDNVIVGDVAKENSKMYPEDVVSFVKRSMGDENFYFEHGGKNYHAEEISSFILRKLISDAENNLGQKINDVVITCPAYFGINEREATKLAGEIAGLNVKAIINEPTAAAVAYGVDYDKDKVVLVYDLGGGTFDVTMIDVKKDSIKVICTGGDHNLGGKDWDDALIAYMAEQYKEITGNDKDILEDPETCQELQLLAERVKKTLSQREKAPISINYEGERAKIEITRQKFNELTYDLLQRTVNLMDDMLKEAAKKNYTSFDEILLVGGSSRMPQVEEIIKNKYNIEPKVFDPDEAVSKGAALYGWKLSVNDELVRRISEETGKDIEDIKKSIDEKSIDENVVEAAAKRVADDTGYTLSAVKASNVKVVNVVSKSFGVVTYNNEEKEVVYNLIIKNSEVPYEFTERFGTREENQENVMIKIVEDELSDKIVDIAYGNEIGEAELVLPENLPKNSPVDITFKLNEEGRLEIKAIEAVEKREISTSIETSSVIKGKDLEEAKERNKNIEVS”, the protein production result is given as “failed”. Consider “MAMNLRKNQAPLYIKVHEIDNTAIIVNDGGLPKGTVFSCGLVLEEDVPQGHKVALTDLNQGDEIVRYGEVIGFADETIKRGSWIREALVRMPAP”, for which the protein production result is “failed”.
